Reference: US7294753 (Biogen, dated 2007)

B1: anti-MIF monoclonal antibody 19B11-7 (antibody, V domains shown)
VH: QIQLVQSGPELKKPGETVKISCKASGYSFRNYGMNWVSQPPGKGLEWMGWINTYTGEPTYADDFKGRFAFSLDTSASTAYLTINNLKNEDTATYFCARSNYGNYFDYWGQGTTLTVSA
VL: NIVLTQSPASLALSLGQRATISCRTSESVDSYASSFMHWYQQKPGQSPKLLIYLASNLESGVPARFSGSGSRTDFTLTIDPVEADDAATYYCQQSNEDPRTFGGGTQLEIKR
notes: Mouse hybridoma antibody from a MIF knockout mouse, purified from ascites
B2: anti-MIF monoclonal antibody 33G7-9 (antibody, V domains shown)
VH: DVQLQESGPDLVKPSQSLSLTCSVTGYSITSGYYWNWIRQFPGNKLEWVGYLSYDGSKSHNPSLRNRISITRDPSKNQFFLKLNSVTTEDTATYYCARGGKIFYGSSYDPFAYWGQGTLVTVSS
VL: DIQMTQSPASLSASVGETVTITCRASENIFNYLSWYQQKQGKSPQLLVYNVKTLTDGVPSRFSGSGSGTQFSLKINSLQPEDFGSYYCQHHYDTPYTFGRGTKLEIKR
B3: anti-MIF monoclonal antibody 22F11-6 (antibody, V domains shown)
VH: EVKLEESGGGLVQPGGSMKLSCAASGFTFGDAWMYWVRQSPEKGLEWVAEIRSKAHNHATYYAESVKGRFTISRDDSKSSVYLQMSSLRAEDTGIYYCTSHHYGSSWYFDVWGAGTTVTVSS
VL: DIQMTQSPASLSASVGETVTITCRASENIYSYLTWFQQKQGKSPQLLVYDAKTLAEGVPSSFSGSGSGTQFSLKIISLQPEHFGSYYCQHHYGRPYTFGGGTKLEIKR
notes: Mouse hybridoma antibody from a MIF knockout mouse, purified from ascites; also called Mab 22F11-6
B4: anti-MIF monoclonal antibody 10B11-3 (antibody, V domains shown)
VH: EVQLQQSGPELVKPGASVRISCKTSGYTITEYTMHWMKQSHEKSLEWIGGITPNTGVLSDNQKFRGKATLTVDKSSNTAYMELRSLTSADSAVYYCARRGNNYYGSSPWFAYWGQGTLVTVSA
VL: DIQMTQSPASLSVSVGETVTITCRASENIYSNLAWYQQKQGKSPQLLVYAATNLADGVPSRFSGSGSGTQYSLNIYSLQPEDFGSYYCQHFWGTPYTFGGGTKLEIKR
notes: Mouse hybridoma antibody from a MIF knockout mouse, purified from ascites; also called Mab 10B11-3; 1OB11-3
B5: anti-MIF monoclonal antibody 6B5-5 (antibody, V domains shown)
VH: DVQLQESGPGLVKPSQSLSLTCTVTGSSITSDYAWHWIRQFPGNKLEWMGYISFSGSTGYNPSLKSRFSITRDTSKNQFFLQLNSVTTEDTATYYCAREAYGYDVGYFDYWGQGTTLTVSS
VL: QIVLTQSPAIMSAFPGEKVTITCSASSSVSYMHWFQQKPGTSPKLWIYGTSNLASGVPVRFSGSGSGTSYSLTISRMEAEDAATYYCQQRSSYPWTFGGGTKLEIKR
B6: anti-MIF monoclonal antibody 29B12-1 (antibody, V domains shown)
VH: EVKLVESGGGSVQPGGSLKLSCATSGFIFSDYYMYWVRQTPEKRLEWVAYISIGSGNTYYPDTVKGRFTISRDIAKNTLYLQMSRLKSEDTAMYYCVRGRLRFLFDYAMDYWGQGTSVTVSS
VL: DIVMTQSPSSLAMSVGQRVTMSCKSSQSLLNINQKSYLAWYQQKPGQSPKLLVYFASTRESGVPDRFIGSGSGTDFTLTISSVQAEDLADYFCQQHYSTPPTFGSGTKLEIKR

Each binder was assayed against T1, human macrophage migration inhibitory factor (MIF) (human, UniProt P14174 2-115) (assay: cell-based or functional assay).
T1 sequence (P14174 2-115 limits assumed): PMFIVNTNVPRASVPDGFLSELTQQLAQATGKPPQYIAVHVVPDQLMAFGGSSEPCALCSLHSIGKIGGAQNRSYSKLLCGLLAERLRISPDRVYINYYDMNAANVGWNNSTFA

% MIF PPT Activity [%]	Binder
0	B1
67	B2
65	B3
136	B4
82	B5
146	B6

Each binder was assayed against T1, human macrophage migration inhibitory … (assay: column 'Binds Human MIF'; method not stated).

Kd [nM]	Binder
< 0.1	B1
< 0.1	B3
< 0.1	B4

Target: T1, human macrophage migration inhibitory …
Assay: column 'Binds Human MIF'; method not stated
Remark: another data set of the same source

Kd [nM]	Binder
< 0.1	B1
< 0.1	B3
< 0.1	B4

Target: T1, human macrophage migration inhibitory …
Assay: cell-based or functional assay
Remark: another data set of the same source

% MIF PPt Activity [%]	MIF Stimulated SRE Transcription (% MIF Activity), 10 µg mab/ml [%]	Binder
0	29	B1
67	5	B2
65	42	B3
136	–	B4
82	36	B5
146	25	B6

What follows are binders tested against T1, human macrophage migration inhibitory … (assay: row 'human MIF Kd < 50 nm'; method not stated).

Kd [nM]	Binder
< 0.1	B3
< 0.1	B4

Target: T1, human macrophage migration inhibitory …
Assay: cell-based or functional assay
Remark: another data set of the same source

% MIF PPT Activity [%]	MIF Stimulated SRE Transcription (% MIF Activity), 10 µg mab/ml [%]	Binder
0	29	B1
67	5	B2
65	42	B3
136	–	B4
82	36	B5
146	25	B6
